Reference: the Immune Epitope Database (IEDB)

Assays:
Assay in all cases: IEDB peptide-MHC binding, purified MHC/competitive/radioactivity; filed as Kd, often an IC50 or EC50 that approximates it; ≥ and ≤ were set here for values at or beyond the usual limits of such assays
HLA-B*18:01 = biological target: HLA-B*18:01
HLA-B*40:01 = biological target: HLA-B*40:01
HLA-B*45:01 = biological target: HLA-B*45:01
HLA-B*40:02 = biological target: HLA-B*40:02
HLA-B*44:02 = biological target: HLA-B*44:02
HLA-B*44:03 = biological target: HLA-B*44:03
[1] = source organism: SARS coronavirus Tor2
[2] = source organism: Lassa virus Josiah
[3] = source organism: Mammarenavirus lassaense
[4] = source organism: Mammarenavirus juninense
[5] = source organism: Mammarenavirus guanaritoense
[6] = source organism: Mammarenavirus brazilense

Q: How did the Kd (HLA-B*18:01; [1]) turn out when WEILKFLIT was run?
A: Its Kd is 2.9 µM.

Q: And the Kd (HLA-B*40:01; [1])?
A: The Kd was 4.36 µM.

Q: And the Kd (HLA-B*45:01; [1])?
A: The Kd was 4.99 µM.

Q: What about the Kd (HLA-B*40:02; [1]) of the same sequence?
A: Its Kd is 0.00209 µM.

Q: And the Kd (HLA-B*44:02; [1])?
A: Its Kd is 9.58 µM.

Q: And the Kd (HLA-B*44:03; [1])?
A: Its Kd is 1.45 µM.

Q: Which Kd (HLA-B*18:01; [2]) does the source give for FDAAVSGGL here?
A: Its Kd is no less than 77.5 µM.

Q: And the Kd (HLA-B*40:01; [2])?
A: The Kd was no less than 20 µM.

Q: What about the Kd (HLA-B*45:01; [2]) of the same sequence?
A: Its Kd is no less than 28.8 µM.

Q: What about the Kd (HLA-B*40:02; [2]) of the same sequence?
A: Its Kd is 5.87 µM.

Q: What about the Kd (HLA-B*44:02; [2]) of the same sequence?
A: Its Kd is no less than 77.9 µM.

Q: And the Kd (HLA-B*44:03; [2])?
A: The Kd was no less than 78.1 µM.

Q: Which results are given for SEGNATPGGY?
A: Kd (HLA-B*18:01; [3]): 18.7 µM; Kd (HLA-B*40:01; [3]): ≥ 64.2 µM; Kd (HLA-B*45:01; [3]): ≥ 70 µM; Kd (HLA-B*40:02; [3]): ≥ 70.8 µM; Kd (HLA-B*44:02; [3]): 19.5 µM; Kd (HLA-B*44:03; [3]): 7.25 µM

Q: GEPKESTPM was tested. Which Kd (HLA-B*18:01; [3]) did it give?
A: The Kd was no less than 77.5 µM.

Q: What about the Kd (HLA-B*40:01; [3]) of the same sequence?
A: The Kd was 1.18 µM.

Q: And the Kd (HLA-B*45:01; [3])?
A: Its Kd is no less than 77.7 µM.

Q: What about the Kd (HLA-B*40:02; [3]) of the same sequence?
A: Its Kd is 0.191 µM.

Q: And the Kd (HLA-B*44:02; [3])?
A: The Kd was 9.34 µM.

Q: What about the Kd (HLA-B*44:03; [3]) of the same sequence?
A: The Kd was no less than 78.1 µM.

Q: What does the source list for EELFYSYAT?
A: Kd (HLA-B*18:01; [1]): 1.04 µM; Kd (HLA-B*40:01; [1]): 0.691 µM; Kd (HLA-B*45:01; [1]): 0.00316 µM; Kd (HLA-B*40:02; [1]): 0.0246 µM; Kd (HLA-B*44:02; [1]): 0.278 µM; Kd (HLA-B*44:03; [1]): 0.169 µM

Q: What does the source list for MDYLILKNL?
A: Kd (HLA-B*18:01; [4]): ≥ 53.7 µM; Kd (HLA-B*40:01; [4]): ≥ 33.9 µM; Kd (HLA-B*45:01; [4]): ≥ 33.2 µM; Kd (HLA-B*40:02; [4]): 0.0185 µM; Kd (HLA-B*44:02; [4]): 11 µM; Kd (HLA-B*44:03; [4]): 2.74 µM

Q: With LENAQPGLL as the sequence, how does the Kd (HLA-B*18:01; [5]) read?
A: The Kd was 10.7 µM.

Q: What about the Kd (HLA-B*40:01; [5]) of the same sequence?
A: The Kd was 1.03 µM.

Q: And the Kd (HLA-B*45:01; [5])?
A: Its Kd is no less than 48 µM.

Q: And the Kd (HLA-B*40:02; [5])?
A: The Kd was 0.182 µM.

Q: And the Kd (HLA-B*44:02; [5])?
A: Its Kd is 6.08 µM.

Q: And the Kd (HLA-B*44:03; [5])?
A: The Kd was 13.8 µM.

Q: With GETALALLLL as the sequence, how does the Kd (HLA-B*18:01; [1]) read?
A: Its Kd is no less than 48.1 µM.

Q: And the Kd (HLA-B*40:01; [1])?
A: Its Kd is 0.0161 µM.

Q: And the Kd (HLA-B*45:01; [1])?
A: Its Kd is 1.9 µM.

Q: And the Kd (HLA-B*40:02; [1])?
A: Its Kd is 0.0162 µM.

Q: What about the Kd (HLA-B*44:02; [1]) of the same sequence?
A: The Kd was 1.34 µM.

Q: What about the Kd (HLA-B*44:03; [1]) of the same sequence?
A: The Kd was 0.149 µM.

Q: What does the source list for IDNQKLSYL?
A: Kd (HLA-B*18:01; [6]): ≥ 77.5 µM; Kd (HLA-B*40:01; [6]): ≥ 76.1 µM; Kd (HLA-B*45:01; [6]): 17.7 µM; Kd (HLA-B*40:02; [6]): 6.52 µM; Kd (HLA-B*44:02; [6]): ≥ 77.9 µM; Kd (HLA-B*44:03; [6]): ≥ 78.1 µM
